US20220275077A1
Like-named read-outs stand apart in the source and are kept apart here.

T1: FERD3L (human) (UniProt Q96RJ6)
T1 sequence (looked up): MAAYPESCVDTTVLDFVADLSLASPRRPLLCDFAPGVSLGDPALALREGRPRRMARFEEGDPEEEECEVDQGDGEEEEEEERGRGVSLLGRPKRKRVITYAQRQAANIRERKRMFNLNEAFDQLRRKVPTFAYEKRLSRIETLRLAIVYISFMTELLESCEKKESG

T2: human Interleukin-38 (IL-38) (human) (UniProt Q8WWZ1)
T2 sequence (looked up): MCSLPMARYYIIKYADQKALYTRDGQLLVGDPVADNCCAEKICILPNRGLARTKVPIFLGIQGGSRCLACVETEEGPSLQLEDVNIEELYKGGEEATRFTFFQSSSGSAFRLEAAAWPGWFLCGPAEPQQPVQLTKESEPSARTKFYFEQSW

T3: IL-36Ra (human) (UniProt Q9UBH0)
T3 sequence (looked up): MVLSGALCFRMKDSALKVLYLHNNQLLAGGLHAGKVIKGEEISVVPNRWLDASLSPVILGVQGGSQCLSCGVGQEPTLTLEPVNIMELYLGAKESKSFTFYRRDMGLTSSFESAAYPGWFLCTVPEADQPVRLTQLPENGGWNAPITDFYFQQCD

T4: IL-33 (human) (UniProt O95760)
T4 sequence (looked up): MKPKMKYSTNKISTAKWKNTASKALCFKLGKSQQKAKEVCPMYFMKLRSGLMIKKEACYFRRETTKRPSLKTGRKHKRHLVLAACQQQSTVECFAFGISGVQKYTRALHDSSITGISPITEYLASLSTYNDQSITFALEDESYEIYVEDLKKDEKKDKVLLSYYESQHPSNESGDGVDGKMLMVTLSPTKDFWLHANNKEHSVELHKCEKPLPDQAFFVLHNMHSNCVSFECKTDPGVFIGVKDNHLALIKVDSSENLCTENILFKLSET

T5: IL-1α (human) (UniProt P01583)
T5 sequence (looked up): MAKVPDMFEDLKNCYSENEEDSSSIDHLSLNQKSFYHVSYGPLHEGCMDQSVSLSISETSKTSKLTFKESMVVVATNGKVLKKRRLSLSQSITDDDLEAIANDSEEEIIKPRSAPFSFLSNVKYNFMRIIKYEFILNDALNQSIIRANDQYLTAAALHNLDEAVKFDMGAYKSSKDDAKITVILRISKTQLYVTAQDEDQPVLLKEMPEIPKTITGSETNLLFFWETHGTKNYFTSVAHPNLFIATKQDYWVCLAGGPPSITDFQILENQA

T6: IL-36b (human) (UniProt Q9NZH7)
T6 sequence (looked up): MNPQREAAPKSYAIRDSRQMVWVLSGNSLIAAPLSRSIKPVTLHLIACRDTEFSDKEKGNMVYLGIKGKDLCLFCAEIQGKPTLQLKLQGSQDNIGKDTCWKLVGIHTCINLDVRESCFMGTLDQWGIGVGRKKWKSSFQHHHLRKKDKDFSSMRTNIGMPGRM

T7: IL-36g (human) (UniProt Q9NZH8)
T7 sequence (looked up): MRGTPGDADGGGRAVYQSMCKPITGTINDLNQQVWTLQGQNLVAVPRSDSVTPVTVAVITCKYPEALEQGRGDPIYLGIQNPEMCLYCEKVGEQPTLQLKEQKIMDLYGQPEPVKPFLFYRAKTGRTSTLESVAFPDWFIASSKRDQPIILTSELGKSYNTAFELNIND

T8: IL-37 (human) (UniProt Q9NZH6)
T8 sequence (looked up): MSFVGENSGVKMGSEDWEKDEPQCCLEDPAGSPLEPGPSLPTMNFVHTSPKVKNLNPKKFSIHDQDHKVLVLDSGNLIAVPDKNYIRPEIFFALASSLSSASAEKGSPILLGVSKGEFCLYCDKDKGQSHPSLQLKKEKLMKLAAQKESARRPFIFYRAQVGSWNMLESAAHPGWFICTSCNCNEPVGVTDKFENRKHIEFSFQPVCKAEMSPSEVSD

T9: IL-36a (human) (UniProt Q9UHA7)
T9 sequence (looked up): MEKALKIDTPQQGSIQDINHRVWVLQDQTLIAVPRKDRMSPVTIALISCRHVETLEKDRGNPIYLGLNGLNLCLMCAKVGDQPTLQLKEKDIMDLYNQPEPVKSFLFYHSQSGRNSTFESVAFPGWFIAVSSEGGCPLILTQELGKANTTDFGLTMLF

B1: CD1-M3 (antibody, from a related filing, V domains shown)
VH: EVQLQQSGPELVKPGASVKIPCKASGYTFTDYNMDWVKQSHGKSLEWIGDINPNNGGTIYNQKFKGKATLTVDKSSSTAYMELRSLTSEDTAVYYCSRPYYGYFAYWGQGTLVTVSA
VL: DVVMTQSPLSLPVSLGDQASISCRSSQSLVHSHENTFLHWYLQKPGQSPKLLIYRVSNRFSGVPDRFSGSGSGTDFTLKISRVEAEDLGVYFCSQSTHVPLTFGAGTKLELK
B2: CD1-M8 (antibody, from a related filing, V domains shown)
VH: EVQLQQSGPELVKPGASVKMSCKASGYTFTDYYIHWVKQSHGKGLEWIGYIFPNNGGNGYSQKFKGKATMTVDKSSSTAYMELRSLTSEDSAVYYCARGGYDAGFVYWGQGTLVTVSA
VL: DIVMSQSPSSLAVSAGEKVTMSCKSSQSLFNSGARKNFLAWYQQKPGQSPKLLIYWASTRESGVPDRFTGSGSGTDFTLTISSVQAEDLAVYYCKQSYYLITFGAGTKLELK

How the values were obtained:
FERD3L (human) = molecular target: T1, FERD3L (human); experiment: CDI HuProt native protein microarray
[1] = molecular target: T2, human Interleukin-38 (IL-38) (human); experiment: CDI HuProt native protein microarray
Hnmph1 = experiment: CDI HuProt native protein microarray
[2] = molecular target: T2, human Interleukin-38 (IL-38) (human); experiment: BLI (Octet QKe), antibody on anti-mouse Fc biosensor, soluble IL-38, 1:1 model
IL-36Ra (human) = molecular target: T3, IL-36Ra (human); experiment: CDI HuProt native protein microarray
IL-33 (human) = molecular target: T4, IL-33 (human); experiment: CDI HuProt native protein microarray
[3] = molecular target: T2, human Interleukin-38 (IL-38) (human); experiment: CDI HuProt native protein microarray; remark: listed apart in the source
IL-18 (human) = IL-18 (human) (UniProt Q14116); experiment: CDI HuProt native protein microarray
IL-18 (human), sequence (Q14116 whole entry): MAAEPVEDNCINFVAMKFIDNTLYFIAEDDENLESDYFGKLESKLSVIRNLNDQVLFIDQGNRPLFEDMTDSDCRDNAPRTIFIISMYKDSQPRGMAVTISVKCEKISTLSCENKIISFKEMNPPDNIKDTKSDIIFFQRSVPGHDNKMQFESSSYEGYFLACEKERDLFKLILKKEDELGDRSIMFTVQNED

IL-1α (human) = molecular target: T5, IL-1α (human); experiment: CDI HuProt native protein microarray
IL-36b (human) = molecular target: T6, IL-36b (human); experiment: CDI HuProt native protein microarray
IL-36g (human) = molecular target: T7, IL-36g (human); experiment: CDI HuProt native protein microarray
IL-1Ra (human) = IL-1Ra (human) (UniProt P18510); experiment: CDI HuProt native protein microarray
IL-1Ra (human), sequence (P18510 26-177 limits assumed): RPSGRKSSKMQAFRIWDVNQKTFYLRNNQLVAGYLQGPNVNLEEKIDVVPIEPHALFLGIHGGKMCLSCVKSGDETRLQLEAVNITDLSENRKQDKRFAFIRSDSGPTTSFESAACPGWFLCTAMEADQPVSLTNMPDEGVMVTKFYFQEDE

IL-37 (human) = molecular target: T8, IL-37 (human); experiment: CDI HuProt native protein microarray
IL-1β (human) = IL-1β (human) (UniProt P01584); experiment: CDI HuProt native protein microarray
IL-1β (human), sequence (P01584 whole entry): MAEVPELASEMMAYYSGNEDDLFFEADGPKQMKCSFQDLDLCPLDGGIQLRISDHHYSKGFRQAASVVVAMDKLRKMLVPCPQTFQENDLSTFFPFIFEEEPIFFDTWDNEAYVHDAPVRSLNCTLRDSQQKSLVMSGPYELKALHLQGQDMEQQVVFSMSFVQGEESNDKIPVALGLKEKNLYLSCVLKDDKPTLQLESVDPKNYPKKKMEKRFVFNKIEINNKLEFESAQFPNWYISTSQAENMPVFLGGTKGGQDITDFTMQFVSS

IL-36a (human) = molecular target: T9, IL-36a (human); experiment: CDI HuProt native protein microarray

Binder	F635 (FERD3L (human))	Z-score (FERD3L (human))	s-score (FERD3L (human))	F635 [1]	s-score [1]	Z-score (IL-36Ra (human))	Z-score (IL-33 (human))	Z-score [3]	Z-score (IL-18 (human))	Z-score (IL-1α (human))	Z-score (IL-36b (human))	Z-score (IL-36g (human))	Z-score (IL-1Ra (human))	Z-score (IL-37 (human))	Z-score (IL-1β (human))	Z-score (IL-36a (human))	also measured
B1	19100	49.2	26.2	54000	90.3	-0.017	-0.02	140	-0.016	-0.013	-0.016	-0.017	-0.013	-0.013	-0.016	-0.008	Z-score [1]: 140; F635 (Hnmph1): 4130; Z-score (Hnmph1): 10.6; s-score (Hnmph1): 5; Kd [2]: 0.721 nM
B2	16300	50.9	40.8	45600	91.5	-0.019	-0.014	142	-0.016	-0.014	-0.01	-0.008	0.003	-0.016	-0.017	0.012	
